The record followed here is patent US20200297764A1 (Memorial Sloan Kettering, published 2020).

For test [1], the target named is CD33 on human CD33(+) cells (human, UniProt P20138 18-364). Nature of the test: cell-based or functional assay.
For test [2], the target named is T1, CD3 on activated T cells (human, UniProt P07766 23-207).
T1 construct: whole, on cells; CD3 complex on cells; the rest of the complex is not described; also called CD3 receptor
Nature of the test: flow cytometry on activated T cells, 4 C, secondary antibody, MFI. How it is done:
FIG. 13 depicts binding properties of an exemplary CD33-CD3 IgG-scFv (BsAb) to CD33 and CD3. (A) MOLM13 cells were reacted for 30 min at 4 C.° using decreasing doses of hM195 (anti-CD33 IgG), the heterodimeric BsAb, and an exemplary CD33-CD3 IgG-scFv. Cells were washed and immunostained with a fluorochrome-conjugated secondary antibody and mean fluorescence intensity (MFI) assayed by flow cytometry. (B) MOLM13 cells were reacted for 30 min, 4 h or 24 h at 37 C.° or 4 C.° with 1 μg/ml of hM195 (anti-CD33 IgG), the heterodimeric IgG BsAb, and exemplary CD33-CD3 IgG-scFv. Cells were washed and immunostained with a fluorochrome-conjugated secondary antibody at 4 C.°. After washing the unbound antibody, MFI was analyzed by flow cytometry. (C) Activated T cells were reacted for 30 min at 4 C.° with decreasing doses of hOKT3 (anti-CD3 IgG), the heterodimeric BsAb, and exemplary CD33-CD3 IgG-scFv. Cells were washed and immunostained with a fluorochrome-conjugated secondary antibody and MFI analyzed measured by flow cytometry.

Chain of CD33 on human CD33(+) cells (P20138 18-364): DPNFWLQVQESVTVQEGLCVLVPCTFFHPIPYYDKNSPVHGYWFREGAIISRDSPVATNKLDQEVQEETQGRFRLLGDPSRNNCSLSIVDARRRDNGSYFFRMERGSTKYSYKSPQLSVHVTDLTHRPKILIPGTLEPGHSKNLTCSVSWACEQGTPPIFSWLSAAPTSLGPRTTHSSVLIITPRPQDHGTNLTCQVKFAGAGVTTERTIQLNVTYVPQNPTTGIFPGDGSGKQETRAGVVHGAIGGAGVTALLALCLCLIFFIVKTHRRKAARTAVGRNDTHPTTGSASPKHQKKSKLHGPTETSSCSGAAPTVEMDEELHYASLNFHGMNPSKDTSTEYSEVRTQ
T1 sequence (P07766 23-207): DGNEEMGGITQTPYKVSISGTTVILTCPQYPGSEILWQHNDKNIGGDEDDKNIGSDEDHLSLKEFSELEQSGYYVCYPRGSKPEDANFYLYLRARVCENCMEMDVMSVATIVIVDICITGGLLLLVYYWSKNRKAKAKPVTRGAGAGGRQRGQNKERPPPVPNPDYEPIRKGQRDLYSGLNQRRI

B1: CD33-BsAb (BiClone 133), exemplary CD33-CD3 IgG-scFv bispecific antibody agent (bispecific antibody)
heavy: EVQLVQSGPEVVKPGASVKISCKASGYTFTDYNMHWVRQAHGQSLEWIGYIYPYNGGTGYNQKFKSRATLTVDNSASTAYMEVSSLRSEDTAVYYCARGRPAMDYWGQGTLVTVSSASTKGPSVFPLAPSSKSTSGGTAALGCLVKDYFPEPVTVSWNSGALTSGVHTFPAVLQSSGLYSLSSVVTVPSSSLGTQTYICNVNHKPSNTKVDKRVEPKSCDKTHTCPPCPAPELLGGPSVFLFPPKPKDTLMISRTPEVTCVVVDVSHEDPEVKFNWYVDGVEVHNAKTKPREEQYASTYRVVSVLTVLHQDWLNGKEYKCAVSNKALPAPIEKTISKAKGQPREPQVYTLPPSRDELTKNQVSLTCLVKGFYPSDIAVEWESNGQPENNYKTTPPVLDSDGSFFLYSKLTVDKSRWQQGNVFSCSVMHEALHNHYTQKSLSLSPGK
light: EIVLTQSPATLSVSLGERATISCRASESVDNYGISFMNWFQQKPGQPPRLLIYAASNQGSGVPARFSGSGPGTDFTLTISSMEPEDFAMYFCQQSKEVPWTFGGGTKLEIKRTVAAPSVFIFPPSDEQLKSGTASVVCLLNNFYPREAKVQWKVDNALQSGNSQESVTEQDSKDSTYSLSSTLTLSKADYEKHKVYACEVTHQGLSSPVTKSFNRGECTSGGGGSGGGGSGGGGSQVQLVQSGGGVVQPGRSLRLSCKASGYTFTRYTMHWVRQAPGKCLEWIGYINPSRGYTNYNQKFKDRFTISRDNSKNTAFLQMDSLRPEDTGVYFCARYYDDHYSLDYWGQGTPVTVSSGGGGSGGGGSGGGGSGGGGSGGGGSGGGGSDIQMTQSPSSLSASVGDRVTITCSASSSVSYMNWYQQTPGKAPKRWIYDTSKLASGVPSRFSGSGSGTDYTFTISSLQPEDIATYYCQQWSSNPFTFGCGTKLQITR
notes: IgG-scFv format, tetravalent (2+2): two arms to CD33 and two to CD3; also called CD33-specific BsAb; anti-CD33 BsAb
In the case of B1, in test [1], the “EC50 of T cell cytotoxicity (lysis of MOLM13 cells)” value is 2.4 pM; the “EC50 of T cell cytotoxicity, 4-hour 51Cr release assay, HL60 AML cells” value was 1.1 pM; the “TDCC potency, fold against the heterodimer, 4 h chromium release assay, THP1 and MOLM13 cells” value turned out to be 12 fold. In test [2], the “fold weaker binding (against heterodimer)” value came to 2.5 fold and the “fold weaker binding (against huOKT3)” value is 27 fold.
